{
  "source": "patent US20180163176A1",
  "about": "(NANTKWEST, published 2018)",
  "molecular_target": "CD33 (UniProt P20138 18-364, limits assumed)",
  "sequence (P20138 18-364 limits assumed)": "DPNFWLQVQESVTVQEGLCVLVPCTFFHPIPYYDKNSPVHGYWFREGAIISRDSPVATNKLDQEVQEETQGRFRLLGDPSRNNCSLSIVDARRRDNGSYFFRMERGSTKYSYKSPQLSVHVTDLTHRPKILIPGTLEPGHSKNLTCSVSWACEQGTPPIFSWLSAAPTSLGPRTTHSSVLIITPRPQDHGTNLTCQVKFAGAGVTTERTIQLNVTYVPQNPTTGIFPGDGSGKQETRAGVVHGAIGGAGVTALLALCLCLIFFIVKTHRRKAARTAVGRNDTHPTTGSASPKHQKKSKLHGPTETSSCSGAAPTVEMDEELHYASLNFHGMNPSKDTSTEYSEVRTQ",
  "assay": "cell-based or functional assay",
  "data": [
    {"binder": "CD33-CAR (other) MDWIWRILFLVGAATGAHSAQPADIQMTQSPSSLSASVGDRVTITCRASESVDNYGISFMNWFQQKPGKAPKLLIYAASNQGSGVPSRFSGSGSGTDFTLTISSLQPDDFATYYCQQSKEVPWTFGQGTKVEIKGGGGSGGGGSGGGGSQVQLVQSGAEVKKPGSSVKVSCKASGYTFTDYNMHWVRQAPGQGLEWIGYIYPYNGGTGYNQKFKSKATITADESTNTAYMELSSLRSEDTAVYYCARGRPAMDYWGQGTLVTVSSALSNSIMYFSHFVPVFLPAKPTTTPAPRPPTPAPTIASQPLSLRPEASRPAAGGAVHTRGLDPKLCYLLDGILFIYGVILTALFLRVKFSRSADAPAYQQGQNQLYNELNLGRREEYDVLDKRRGRDPEMGGKPRRKNPQEGLYNELQKDKMAEAYSEIGMKGERRRGKGHDGLYQGLSTATKDTYDALHMQALPPR", "values": [
      {"measurement": "cytotoxicity against aNK resistant cell lines at 24 hours (flow cytometry assay)", "result": "> 80", "unit": "%"}
    ]}
  ]
}
